Reference: patent US20200199204A1 (UNITED STATES OF AMERICA AS REPRESENTED BY THE SECRETARY …, published 2020)

Experiments:
Assay in all cases: cell-based or functional assay
HIV-1 Env of CAP256.PI = HIV-1 Env of CAP256.PI (HIV-1)
HIV-1 Env of CAP256.SU = HIV-1 Env of CAP256.SU (HIV-1)
HIV-1 Env of 96ZM651.02 = HIV-1 Env of 96ZM651.02 (HIV-1)
HIV-1 Env of CAP210.E8 = HIV-1 Env of CAP210.E8 (HIV-1)
HIV-1 Env of CAP244.D3 = HIV-1 Env of CAP244.D3 (HIV-1)
HIV-1 Env of DU156.12 = HIV-1 Env of DU156.12 (HIV-1)
HIV-1 Env of DU172.17 = HIV-1 Env of DU172.17 (HIV-1)
HIV-1 Env of DU422.01 = HIV-1 Env of DU422.01 (HIV-1)
HIV-1 Env of ZM109.4 = HIV-1 Env of ZM109.4 (HIV-1)
HIV-1 Env of ZM135.10a = HIV-1 Env of ZM135.10a (HIV-1)
HIV-1 Env of ZM197.7 = HIV-1 Env of ZM197.7 (HIV-1)
HIV-1 Env of ZM214.15 = HIV-1 Env of ZM214.15 (HIV-1)
HIV-1 Env of ZM249.1 = HIV-1 Env of ZM249.1 (HIV-1)
HIV-1 Env of 0260.v5.c36 = HIV-1 Env of 0260.v5.c36 (HIV-1)
HIV-1 Env of BG505.w6m = HIV-1 Env of BG505.w6m (HIV-1)
HIV-1 Env of KER2008.12 = HIV-1 Env of KER2008.12 (HIV-1)
HIV-1 Env of MB201 = HIV-1 Env of MB201 (HIV-1)
HIV-1 Env of MB539.2B7 = HIV-1 Env of MB539.2B7 (HIV-1)
HIV-1 Env of Q168.a2 = HIV-1 Env of Q168.a2 (HIV-1)
HIV-1 Env of Q23.17 = HIV-1 Env of Q23.17 (HIV-1)
HIV-1 Env of Q259.d2.17 = HIV-1 Env of Q259.d2.17 (HIV-1)
HIV-1 Env of Q461.e2 = HIV-1 Env of Q461.e2 (HIV-1)
HIV-1 Env of Q769.d22 = HIV-1 Env of Q769.d22 (HIV-1)
HIV-1 Env of Q842.d12 = HIV-1 Env of Q842.d12 (HIV-1)
HIV-1 Env of RW020.2 = HIV-1 Env of RW020.2 (HIV-1)
HIV-1 Env of UG037.8 = HIV-1 Env of UG037.8 (HIV-1)
HIV-1 Env of 6535.3 = HIV-1 Env of 6535.3 (HIV-1)
HIV-1 Env of AC10.29 = HIV-1 Env of AC10.29 (HIV-1)
HIV-1 Env of CAAN.A2 = HIV-1 Env of CAAN.A2 (HIV-1)
HIV-1 Env of PVO.04 = HIV-1 Env of PVO.04 (HIV-1)
HIV-1 Env of QH0692.42 = HIV-1 Env of QH0692.42 (HIV-1)
HIV-1 Env of REJO.67 = HIV-1 Env of REJO.67 (HIV-1)
HIV-1 Env of RHPA.7 = HIV-1 Env of RHPA.7 (HIV-1)
HIV-1 Env of SC422.8 = HIV-1 Env of SC422.8 (HIV-1)
HIV-1 Env of THRO.18 = HIV-1 Env of THRO.18 (HIV-1)
HIV-1 Env of TRJO.58 = HIV-1 Env of TRJO.58 (HIV-1)
HIV-1 Env of TRO.11 = HIV-1 Env of TRO.11 (HIV-1)
HIV-1 Env of WITO.33 = HIV-1 Env of WITO.33 (HIV-1)
HIV-1 Env of 6405.v4.c34 = HIV-1 Env of 6405.v4.c34 (HIV-1)
HIV-1 Env of C1080.c3 = HIV-1 Env of C1080.c3 (HIV-1)
HIV-1 Env of CM244.ec1 = HIV-1 Env of CM244.ec1 (HIV-1)
HIV-1 Env of CNE3 = HIV-1 Env of CNE3 (HIV-1)
HIV-1 Env of TH976.17 = HIV-1 Env of TH976.17 (HIV-1)
Env of SIVmac251.30 = Env of SIVmac251.30 (SIV (SIVmac251))

B1: CAP256-VRC26.25 (antibody, V domains shown)
VH: QVQLVESGGGVVQPGTSLRLSCAASQFRFDGYGMHWVRQAPGKGLEWVASISHDGIKKYHAEKVWGRFTISRDNSKNTLYLQMNSLRPEDTALYYCAKDLREDECEEWWSDYYDFGKQLPCAKSRGGLVGIADNWGQGTMVTVSS
VL: QSVLTQPPSVSAAPGQKVTISCSGNTSNIGNNFVSWYQQRPGRAPQLLIYETDKRPSGIPDRFSASKSGTSGTLAITGLQTGDEADYYCATWAASLSSARVFGTGTQVIVLG
B1 was tested. Which “IC50 (neutralization, TZM-bl)” value (HIV-1 Env of CAP256.PI) did it give?
Its value is 1.33 µg/mL.

What about the “IC50 (neutralization, TZM-bl)” value (HIV-1 Env of CAP256.SU) of the same binder?
The value was 0.001 µg/mL.

And the “IC50 (neutralization, TZM-bl)” value (HIV-1 Env of 96ZM651.02)?
Its value is 0.173 µg/mL.

And the “IC50 (neutralization, TZM-bl)” value (HIV-1 Env of CAP210.E8)?
Its value is 0.001 µg/mL.

What about the “IC50 (neutralization, TZM-bl)” value (HIV-1 Env of CAP244.D3) of the same binder?
The value was greater than 50 µg/mL.

And the “IC50 (neutralization, TZM-bl)” value (HIV-1 Env of DU156.12)?
The value was 0.002 µg/mL.

What about the “IC50 (neutralization, TZM-bl)” value (HIV-1 Env of DU172.17) of the same binder?
The value was greater than 50 µg/mL.

And the “IC50 (neutralization, TZM-bl)” value (HIV-1 Env of DU422.01)?
The value was 0.003 µg/mL.

What about the “IC50 (neutralization, TZM-bl)” value (HIV-1 Env of ZM109.4) of the same binder?
Its value is 0.001 µg/mL.

And the “IC50 (neutralization, TZM-bl)” value (HIV-1 Env of ZM135.10a)?
The value was greater than 50 µg/mL.

What about the “IC50 (neutralization, TZM-bl)” value (HIV-1 Env of ZM197.7) of the same binder?
The value was 0.002 µg/mL.

What about the “IC50 (neutralization, TZM-bl)” value (HIV-1 Env of ZM214.15) of the same binder?
Its value is 0.006 µg/mL.

What about the “IC50 (neutralization, TZM-bl)” value (HIV-1 Env of ZM249.1) of the same binder?
The value was 0.001 µg/mL.

And the “IC50 (neutralization, TZM-bl)” value (HIV-1 Env of 0260.v5.c36)?
The value was 6.54 µg/mL.

And the “IC50 (neutralization, TZM-bl)” value (HIV-1 Env of BG505.w6m)?
The value was 0.001 µg/mL.

And the “IC50 (neutralization, TZM-bl)” value (HIV-1 Env of KER2008.12)?
Its value is 0.005 µg/mL.

And the “IC50 (neutralization, TZM-bl)” value (HIV-1 Env of MB201)?
Its value is greater than 50 µg/mL.

And the “IC50 (neutralization, TZM-bl)” value (HIV-1 Env of MB539.2B7)?
The value was 0.186 µg/mL.

What about the “IC50 (neutralization, TZM-bl)” value (HIV-1 Env of Q168.a2) of the same binder?
Its value is 0.001 µg/mL.

What about the “IC50 (neutralization, TZM-bl)” value (HIV-1 Env of Q23.17) of the same binder?
The value was 0.001 µg/mL.

And the “IC50 (neutralization, TZM-bl)” value (HIV-1 Env of Q259.d2.17)?
The value was 0.002 µg/mL.

And the “IC50 (neutralization, TZM-bl)” value (HIV-1 Env of Q461.e2)?
The value was 0.007 µg/mL.

And the “IC50 (neutralization, TZM-bl)” value (HIV-1 Env of Q769.d22)?
The value was greater than 50 µg/mL.

And the “IC50 (neutralization, TZM-bl)” value (HIV-1 Env of Q842.d12)?
The value was 0.005 µg/mL.

What about the “IC50 (neutralization, TZM-bl)” value (HIV-1 Env of RW020.2) of the same binder?
The value was greater than 50 µg/mL.

What about the “IC50 (neutralization, TZM-bl)” value (HIV-1 Env of UG037.8) of the same binder?
Its value is greater than 50 µg/mL.

What about the “IC50 (neutralization, TZM-bl)” value (HIV-1 Env of 6535.3) of the same binder?
The value was greater than 50 µg/mL.

What about the “IC50 (neutralization, TZM-bl)” value (HIV-1 Env of AC10.29) of the same binder?
The value was 0.077 µg/mL.

What about the “IC50 (neutralization, TZM-bl)” value (HIV-1 Env of CAAN.A2) of the same binder?
Its value is greater than 50 µg/mL.

And the “IC50 (neutralization, TZM-bl)” value (HIV-1 Env of PVO.04)?
Its value is 0.072 µg/mL.

What about the “IC50 (neutralization, TZM-bl)” value (HIV-1 Env of QH0692.42) of the same binder?
Its value is greater than 50 µg/mL.

What about the “IC50 (neutralization, TZM-bl)” value (HIV-1 Env of REJO.67) of the same binder?
The value was greater than 50 µg/mL.

And the “IC50 (neutralization, TZM-bl)” value (HIV-1 Env of RHPA.7)?
The value was greater than 50 µg/mL.

What about the “IC50 (neutralization, TZM-bl)” value (HIV-1 Env of SC422.8) of the same binder?
The value was 47.2 µg/mL.

What about the “IC50 (neutralization, TZM-bl)” value (HIV-1 Env of THRO.18) of the same binder?
Its value is 19.8 µg/mL.

What about the “IC50 (neutralization, TZM-bl)” value (HIV-1 Env of TRJO.58) of the same binder?
Its value is greater than 50 µg/mL.

And the “IC50 (neutralization, TZM-bl)” value (HIV-1 Env of TRO.11)?
Its value is greater than 50 µg/mL.

And the “IC50 (neutralization, TZM-bl)” value (HIV-1 Env of WITO.33)?
Its value is greater than 50 µg/mL.

And the “IC50 (neutralization, TZM-bl)” value (HIV-1 Env of 6405.v4.c34)?
Its value is greater than 50 µg/mL.

And the “IC50 (neutralization, TZM-bl)” value (HIV-1 Env of C1080.c3)?
The value was 0.004 µg/mL.

And the “IC50 (neutralization, TZM-bl)” value (HIV-1 Env of CM244.ec1)?
Its value is 0.092 µg/mL.

What about the “IC50 (neutralization, TZM-bl)” value (HIV-1 Env of CNE3) of the same binder?
Its value is greater than 50 µg/mL.

And the “IC50 (neutralization, TZM-bl)” value (HIV-1 Env of TH976.17)?
Its value is 0.106 µg/mL.

What about the “IC50 (neutralization, TZM-bl)” value (Env of SIVmac251.30) of the same binder?
The value was greater than 50 µg/mL.
